Results on eight compounds are retold here after article PMC5609113, “Substrate Specificity and Inhibitor Sensitivity of Plant UDP-Sugar Producing Pyrophosphorylases” (Frontiers in Plant Science, 2017).

One data set has as its target T1, Arabidopsis UGPase1 (Arabidopsis thaliana, UniProt Q9M9P3).
T1 construct: gene UGP2; recombinant, expressed in E. coli, purified to homogeneity as earlier reported
Put plainly: Pi release from PPi, phosphomolybdate colorimetry. The data set is classed as biochemical. The note with it: forward reaction; 5 mM MgCl2; pH 7.5; room temperature; estimate, clouding at and above 3 mM.

Another data set has as its target T2, barley UGPase (Hordeum vulgare, UniProt Q43772).
T2 construct: recombinant, expressed in E. coli, purified to homogeneity as earlier reported
Put plainly: Pi release from PPi, phosphomolybdate colorimetry. It is filed as biochemical. The note with it: forward reaction, 5 mM MgCl2, pH 7.5, room temperature.

The target in the next data set is T3, Arabidopsis UGPase2 (Arabidopsis thaliana, UniProt P57751).
T3 construct: gene UGP1; recombinant, expressed in E. coli, purified to homogeneity as earlier reported
T3 sequence (P57751 2-470): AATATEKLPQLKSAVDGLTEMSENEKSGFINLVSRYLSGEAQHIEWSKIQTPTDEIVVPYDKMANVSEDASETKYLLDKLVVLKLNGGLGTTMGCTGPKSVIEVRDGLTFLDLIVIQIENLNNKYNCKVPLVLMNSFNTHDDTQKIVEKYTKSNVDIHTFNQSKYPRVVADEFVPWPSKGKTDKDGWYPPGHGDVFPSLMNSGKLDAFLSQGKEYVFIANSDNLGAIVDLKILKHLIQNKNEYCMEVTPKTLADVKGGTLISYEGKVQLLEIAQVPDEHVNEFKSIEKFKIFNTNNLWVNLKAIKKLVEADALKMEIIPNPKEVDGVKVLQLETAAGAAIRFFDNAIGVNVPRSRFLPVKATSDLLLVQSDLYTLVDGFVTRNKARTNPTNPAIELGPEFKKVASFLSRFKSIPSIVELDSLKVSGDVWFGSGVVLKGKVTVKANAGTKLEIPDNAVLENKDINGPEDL
Put plainly: Pi release from PPi, phosphomolybdate colorimetry. It is filed as biochemical. The note with it: 1 mM Glc-1-P; 1 mM UTP; 5 mM MgCl2; pH 7.5; room temperature.

Data set [1] relates to C[C@H]1O[C@H](OP(=O)(O)O)[C@H](O)[C@@H](O)[C@H]1O. The data set is described as follows: Pi release from PPi, phosphomolybdate colorimetry. It is filed as biochemical, Arabidopsis thaliana. The note with it: forward reaction, co-substrate UTP, 5 mM MgCl2, pH 7.5, room temperature.
In data set [2] the test system is O=C(O)[C@H]1O[C@H](OP(=O)(O)O)[C@H](O)[C@@H](O)[C@H]1O. The data set is described as follows: Pi release from PPi, phosphomolybdate colorimetry. It is filed as biochemical, Arabidopsis thaliana. The note with it: forward reaction, co-substrate UTP, 5 mM MgCl2, pH 7.5, room temperature.
In the next data set the test system is O=P(O)(O)OP(=O)(O)O. The data set is described as follows: purified protein. The data set is classed as biochemical, Arabidopsis thaliana. The note with it: reverse reaction, co-substrate UDP-Glc, 5 mM MgCl2, pH 7.5.
Data set [3] has as its system O=c1ccn([C@@H]2O[C@H](CO[P@@](=O)(O)O[P@@](=O)(O)O[C@H]3O[C@H](CO)[C@@H](O)[C@H](O)[C@H]3O)[C@@H](O)[C@H]2O)c(=O)[nH]1. The data set is described as follows: purified protein. The data set is classed as biochemical, Arabidopsis thaliana. The following applies: reverse reaction, co-substrate PPi, 5 mM MgCl2, pH 7.5.
Data set [4] has as its system CC(=O)N[C@H]1[C@@H](OP(=O)(O)O)O[C@H](CO)[C@H](O)[C@@H]1O. Put plainly: Pi release from PPi, phosphomolybdate colorimetry. The note with it: forward reaction, co-substrate UTP, 5 mM MgCl2, pH 7.5, room temperature. It is filed as biochemical, Arabidopsis thaliana.
For data set [5], the system named is O=P(O)(O)O[C@H]1O[C@H](CO)[C@@H](O)[C@H](O)[C@H]1O. The data set is described as follows: Pi release from PPi, phosphomolybdate colorimetry. It is filed as biochemical, Arabidopsis thaliana. The note with it: forward reaction, co-substrate UTP, 5 mM MgCl2, pH 7.5, room temperature.
Data set [6] relates to O=c1ccn([C@@H]2O[C@H](COP(=O)(O)OP(=O)(O)OP(=O)(O)O)[C@@H](O)[C@H]2O)c(=O)[nH]1. Put plainly: Pi release from PPi, phosphomolybdate colorimetry. It is filed as biochemical, Arabidopsis thaliana. The following applies: forward reaction, co-substrate GalNAc-1-P, 5 mM MgCl2, pH 7.5, room temperature.
For data set [7], the system named is O=P(O)(O)O[C@H]1O[C@H](CO)[C@@H](O)[C@H](O)[C@H]1O. Put plainly: Pi release from PPi, phosphomolybdate colorimetry. The data set is classed as biochemical, Hordeum vulgare. The note with it: forward reaction, co-substrate UTP, 5 mM MgCl2, pH 7.5, room temperature.

T2 sequence (Q43772 whole entry): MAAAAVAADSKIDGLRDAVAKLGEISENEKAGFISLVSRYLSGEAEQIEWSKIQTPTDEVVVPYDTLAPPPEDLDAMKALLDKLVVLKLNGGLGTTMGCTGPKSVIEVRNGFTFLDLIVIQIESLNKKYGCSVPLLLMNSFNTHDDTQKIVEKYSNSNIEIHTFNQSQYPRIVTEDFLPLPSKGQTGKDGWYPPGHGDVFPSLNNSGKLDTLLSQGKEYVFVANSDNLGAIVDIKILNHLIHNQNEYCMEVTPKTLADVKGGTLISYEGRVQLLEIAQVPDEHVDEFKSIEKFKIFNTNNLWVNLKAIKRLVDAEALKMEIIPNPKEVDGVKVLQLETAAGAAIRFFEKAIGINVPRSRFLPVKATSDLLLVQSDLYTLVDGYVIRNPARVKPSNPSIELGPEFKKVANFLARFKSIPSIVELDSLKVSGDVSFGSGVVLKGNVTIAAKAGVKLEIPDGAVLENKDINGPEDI
T1 sequence (Q9M9P3 2-469): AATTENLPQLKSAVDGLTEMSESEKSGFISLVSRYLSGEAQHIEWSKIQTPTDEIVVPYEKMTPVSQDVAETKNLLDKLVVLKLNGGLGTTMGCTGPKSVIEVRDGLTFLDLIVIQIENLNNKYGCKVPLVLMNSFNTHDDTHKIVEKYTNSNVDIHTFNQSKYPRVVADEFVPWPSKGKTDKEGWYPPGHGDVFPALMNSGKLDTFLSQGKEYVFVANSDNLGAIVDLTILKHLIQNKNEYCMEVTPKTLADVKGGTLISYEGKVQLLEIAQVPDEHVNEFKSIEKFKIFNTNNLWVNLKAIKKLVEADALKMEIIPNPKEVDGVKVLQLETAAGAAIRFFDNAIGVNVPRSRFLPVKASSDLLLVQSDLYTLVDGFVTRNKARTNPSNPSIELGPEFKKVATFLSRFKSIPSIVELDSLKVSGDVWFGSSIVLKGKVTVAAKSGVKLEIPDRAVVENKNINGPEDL

As a reminder, the Km is the concentration of substrate that gives half-maximal velocity. Take `O=P(O)(O)OCC1(O)O[C@H](CO)[C@@H](O)[C@@H]1O` (some centres unmarked) [Fru-1-P]: the Km on Arabidopsis UGPase1 is > 10 mM; on barley UGPase (estimate, clouding at and above 3 mM), > 10 mM.

Consider `O=P(O)(O)O[C@]1(CO)O[C@H](CO)[C@@H](O)[C@@H]1O` [Fru-2-P], for which the Km on barley UGPase is > 10 mM.

For `O=P(O)(O)O[C@H]1O[C@H](CO)[C@@H](O)[C@H](O)[C@H]1O` [Glc-1-P], the “Pi release from PPi, phosphomolybdate colorimetry” value on Arabidopsis UGPase2 is “plant UGPases are highly specific for Glc-1-P and UTP as substrates”.

In the case of “Arabidopsis USPase (Arabidopsis thaliana)”, the Michaelis constant (Km) in [1] came to 3.4 mM; in data set [2] it was 1.3 mM.

For `O=P(O)(O)O[C@H]1O[C@H](CO)[C@H](O)[C@H](O)[C@H]1O` [Gal-1-P], the Km at barley UGPase (estimate from near-linear rate up to 10 mM) was > 10 mM.

In the case of `O=c1ccn([C@@H]2O[C@H](COP(=O)(O)OP(=O)(O)OP(=O)(O)O)[C@@H](O)[C@H]2O)c(=O)[nH]1` [UTP], on Arabidopsis UGPase2, the “Pi release from PPi, phosphomolybdate colorimetry” value is “plant UGPases are highly specific for Glc-1-P and UTP as substrates”.

As to “Arabidopsis UAGPase2 (Arabidopsis thaliana)”, the Km is listed as 0.32 mM with O=P(O)(O)OP(=O)(O)O; 0.21 mM in data set [3]; 1.0 mM in data set [4]; 3.2 mM in data set [5]; 3 mM in data set [6].

As to barley UGPase (Hordeum vulgare), the Km in data set [7] stood at 0.45 mM.
